Test results: publication PMC5027585, “TSPO ligands stimulate ZnPPIX transport and ROS accumulation leading to the inhibition of P. falciparum growth in human blood” (Scientific Reports, 2016)
Where “and” joins values, the source holds several entries; their conditions need not be identical. Identical values can stand only once.

Molecular target: the molecule itself
Assay: SDS-PAGE and immunoblot (SDS-resistant forms); ghosts of healthy and infected RBCs in 5P8 buffer, solubilised in 1% Triton X-100, denaturing SDS-PAGE, immunoblot; oligomeric state read from the size of the bands

B1: TranSlocator PrOtein 2 (TSPO2) (natural protein, human (endogenous in red blood cells), UniProt Q5TGU0 1-170, looked up)
chain: MRLQGAIFVLLPHLGPILVWLFTRDHMSGWCEGPRMLSWCPFYKVLLLVQTAIYSVVGYASYLVWKDLGGGLGWPLALPLGLYAVQLTISWTVLVLFFTVHNPGLALLHLLLLYGLVVSTALIWHPINKLAALLLLPYLAWLTVTSALTYHLWRDSLCPVHQPQPTEKSD
notes: TSPO2, human, second TSPO isoform, endogenous in mature red blood cells; detected with a rabbit antibody against the 13 C-terminal residues of hTSPO2; also called hTSPO2; source: endogenous, human red blood cell membranes (ghosts) or Triton X-100 lysate of healthy and P. falciparum-infected RBCs
stoichiometry N: 4 and 2
